The values below come from patent publication US11932880B2, “Enzyme and method for assaying pentosidine using same” (priority 2018, dated 2024).

Data set [1] can be described thus: Pentosidine quantitative test (DA-67/peroxidase, A658, Bio Majesty JCA-BM1650). It counts as biochemical. The settings on record: 0.2-4.0 μM pentosidine solutions, 37° C., 5 minutes; ΔA658 correlated with final pentosidine concentration (FIG. 4). As to the method: The following reagents were prepared to measure pentosidine by using Bio Majesty JCA-BM1650 (manufactured by JEOL Ltd.).
0.2 μM, 0.4 μM, 0.6 μM, 1.0 μM, 2.0 μM or 4.0 μM pentosidine solution
25 μL of the sample was added to 50 μL of the first reagent, and the resultant was incubated at 37° C. for 5 minutes. Then, 25 μL of the second reagent was added thereto to allow a pentosidine oxidation reaction owing to PenOX2 and a detection reaction for hydrogen peroxide generated through the reaction to proceed at 37° C. for 5 minutes.
In the detection reaction for hydrogen peroxide, simultaneously with consumption of […], DA-67 is oxidized into methylene blue to present the color, and the absorbance (A658) is increased. As an example, the relationship between the elapsed time after the mixture of the sample (4.0 μM pentosidine solution) and the first reagent and the absorbance (A658) is shown in FIG. 3. It was confirmed that A658 increased immediately after the addition of the second reagent containing PenOX2.
Subsequently, an A658 increment (AA) caused by the oxidation of pentosidine was calculated in accordance with the following equation: ΔA=(absorbance 5 min after addition of second reagent)−(absorbance immediately before addition of second reagent×0.75)

Data set [2] is described as follows: Enzyme activity measurement with pentosidine as substrate (A555 change, U/mL). It counts as biochemical. The settings on record: 37° C.; for pentosidine oxidase activity: purchased enzymes at 1 mg/mL, potassium phosphate buffer pH 7.5, 100 mM; for specific activity, as a reference value (pentosidine oxidase): 1 mg of powder dissolved in 1 mL deionized water. As to the method:
600 μL of an arbitrary buffer, 400 μL of deionized water solution in which 3.99 U/mL peroxidase, 1.8 mM 4-aminoantipyrine and 2 mM TOOS were dissolved, and 150 μL of deionized water were incubated at an arbitrary temperature for 10 minutes. Then, 50 μL of the enzyme solution having been stored on ice and 400 μL of a solution of 4 mM pentosidine dissolved in a 100 mM potassium phosphate buffer (pH 8.0) having been incubated at an arbitrary temperature for 10 minutes were added thereto, followed by stirring and reacting at an arbitrary temperature for 3 minutes. A change over time of A555 during the reaction was measured using a spectrophotometer (U-3900, manufactured by Hitachi High-Tech Science Corporation). An elapsed time from the start of the measurement of 20 seconds to 60 seconds—A555 change was regarded as an activity value.
Besides, an amount of the enzyme generating 1 μmol of hydrogen peroxide per minute at 37° C. was defined as one unite (U), and the activity was calculated in accordance with the following equation. Activity (U/mL)={(ΔAs−ΔA0)×1.6×df}/(39.2×0.5×0.05) • ΔAs: change of A555 per minute of reaction solution • ΔA0: change of A555 per minute of control experiment • 1.6: volume (mL) of whole reaction solution • df: dilution factor • 39.2: millimolar absorbance coefficient (mM^−1-cm-1) of quinoneimine pigment generated through reaction • 0.5: molar number of quinoneimine pigment generated by 1 mol of hydrogen peroxide • 0.05: volume (mL) of enzyme solution
A 50 mM citric acid-100 mM potassium phosphate buffer (pH 4.0 to 7.5, a final concentration), a potassium phosphate buffer (pH 6.5 to 8.0, a final concentration of 100 mM), and a glycine buffer (pH 8.0 to 11.0, a final concentration of 100 mM) were prepared, and these were used to perform an enzymatic reaction at respective pH at a temperature of 37° C. […] Therefore, it was determined that the optimum pH of PenOX2 is pH 6.5 to 8.0, and that the most suitable optimum pH is pH 7.5.
A potassium phosphate buffer (pH 7.5) having a final concentration of 50 mM was used to perform the activity measurement of PenOX2 at various temperatures. The highest activity was obtained around 50° C., and a temperature range for attaining 80% or more of this highest activity was 37° C. to 50° C. Therefore, it was determined that the range of the optimum temperature of PenOX2 is 37° C. to 50° C.
The above-described activity measurement method was employed to perform activity measurement using a potassium phosphate buffer (final pH in the activity measurement: pH 7.5, final concentration of 50 mM) at 37° C., and an activity value (U/mL) was obtained by using the aforementioned equation.
As described above, both PenOX1 and PenOX2 had the pentosidine oxidase activity. […] Subsequently, the following three enzymes were purchased, and the above-described activity measurement method was employed for confirming their pentosidine oxidase activity using a potassium phosphate buffer (pH 7.5, final concentration of 100 mM) at 37° C. The amino acid sequence homologies with PenOX1 and PenOX2 and the pentosidine oxidase activities of these enzymes were as follows.

B1: PenOX1: protein having the amino acid sequence of SEQ ID NO: 2, pentosidine oxidase from Sarocladium sp., gene g4462 (protein, listed as Sarocladium sp.)
chain: MKSPSLAVAGLLLGSSSLSHATQLRIETRKSLNSRIANVHIDVDAPVAHQVVFTYGPCDSESQENAHHVIAQSQKLEGRKPHRLIWTMPKDLHPDDCISAWGESGDLLGRSVPQKVAHKEMRRRKRDDSDYSIPMNSSSGIDVYGPWFDGVALLEKSDNHNVDVEAAKAKEIAIVGAGMAGLTTYFILSEAGLSNLTILEASGRLGGRVRTEYLSGGPRDHSYAEMGPMRIPYQARFGDKAYNISDQAIFFRLVEKVNERNKKLGNTKDLINLIPFIQSSPNGLAYYQGNKLENGLPPTQADVAADPALGNESPEIPESAQELAAQLQRALPNAEFLELMATNFWQAHAEFLENQGPAGLPGDQWSEFAFLVNYLNATVFDANAVTGGYDWHSSLDRSSLVGMNLLPNAFHPLVDDITKFNAKVEKVQLDEKTSRLKLHWRANYTDPELESQSFDYAILSPTMPAVQKLRLPGLPFAMRNAVDSMPYASACKVALEYRTRFWEKFDNPIYGSCSTSTDIPGIGSVCYPSSNINGSGPASLLASYEIGRPYGAEWAGIPEEQHVQYVIDAMIDIHGEVARREFTGKCKRKCWALDEFSNGGWASPTVGNHETYLPSFFETHSHMIFVGEHTSYTHAWIASAIESAVRGSVQLLLELGLIDEAKDVVNTWMARWISVVSDLSKAVVSGASA
For the molecule B1, the pentosidine oxidation activity result in data set [1] was “similarly exhibited pentosidine oxidation activity”.

B2: Amino Acid Oxidase Type VI Derived from Crotalus adamanteus: purchased enzyme manufactured by Merck, SEQ ID NO: 12 (protein, listed as Crotalus adamanteus)
chain: AHDRNPLEECFRETDYEEFLEIAKNGLTATSNPKRVVIVGAGMAGLSAAYVLAGAGHQVTVLEASERVGGRVRTYRKKDWYANLGPMRLPTKHRIVREYIKKFDLKLNEFSQENENAWYFIKNIRKRVREVKNNPGLLEYPVKPSEEGKSAAQLYVESLRKVVEELRSTNCKYILDKYDTYSTKEYLLKEGNLSPGAVDMIGDLLNEDSGYYVSFIESLKHDDIFGYEKRFDEIVGGMDQLPTSMYEAIKEKVQVHFNARVIEIQQNDREATVTYQTSANEMSSVTADYVIVCTTSRAARRIKFEPPLPPKKAHALRSVHYRSGTKIFLTCTKKFWEDDGIHGGKSTTDLPSRFIYYPNHNFTSGVGVIIAYGIGDDANFFQALDFKDCADIVINDLSLIHELPKEDIQTFCHPSMIQRWSLDKYAMGGITTFTPYQFQHFSEALTAPFKRIYFAGEYTAQFHGWIDSTIKSGLTAARDVNRASENPSGIHLSNDNEF
B2: in data set [2] (enzyme concentration 1 mg/mL (biuret method), pH 7.5, 100 mM), the “specific activity (pentosidine oxidase)” value stood at 0.555 U/mg. This molecule also displayed a pentosidine oxidase activity in data set [2] of 0.555 U/mL.

B3: Amino Acid Oxidase Type I Derived from Crotalus atrox: purchased enzyme manufactured by Merck, SEQ ID NO: 13 (protein)
chain: AHDRNPLEECFRETDYEEFLEIAKNGLTATSNPKRVVIVGAGMAGLSAAYVLAGAGHQVTVLEASERVGGRVRTYRKKDWYANLGPMRLPTKHRIVREYIKKFDLKLNEFSQENENAWYFIKNIRKRVREVKNNPGLLEYPVKPSEEGKSAAQLYVESLRKVVEELRSTNCKYILDKYDTYSTKEYLLKEGNLSPGAVDMIGDLLNEDSGYYVSFIESLKHDDIFGYEKRFDEIVGGMDQLPTSMYEAIKEKVQVHFNARVIEIQQNDREATVTYQTSANEMSSVTADYVIVCTTSRAARRIKFEPPLPPKKAHALRSVHYRSGTKIFLTCTKKFWEDDGIHGGKSTTDLPSRFIYYPNHNFTSGVGVIIAYGIGDDANFFQALDFKDCADIVINDLSLIHELPKEDIQTFCHPSMIQRWSLDKYAMGGITTFTPYQFQHFSEALTAPFKRIYFAGEYTAQFHGWIDSTIKSGLTAARDVNRASENPSGIHLSNDNEF
modifications: Crotalus atrox
With B3, the “specific activity, as a reference value (pentosidine oxidase)” value in data set [2] (pH 7.5, 100 mM) was determined as 0.022 U/mg. In data set [2], this molecule came in with a pentosidine oxidase activity of 0.022 U/mL.

B4: Lysine Oxidase Derived from Trichoderma viride: purchased enzyme manufactured by Merck, SEQ ID NO: 14 (protein)
chain: MDNVDFAESVRTRWARRLIREKVAKELNILTERLGEVPGIPPPREGRFLGGGYSHDNLPSDPLYSSIKPALLKEAPRAEEELPPRKVCIVGAGVSGLYIAMILDDLKIPNLTYDIFESSSRTGGRLYTHHFTDAKHDYYDIGAMRYPDIPSMKRTFNLFKRTGMPLIKYYLDGENTPQLYNNHFFAKGVVDPYMVSVANGGTVPDDVVDSVGEKLQQAFGYYKEKLAEDFDKGFDELMLVDDMTTREYLKRGGPKGEAPKYDFFAIQWMETQNTGTNLFDQAFSESVIDSFDFDNPTKPEWYCIEGGTSLLVDAMKETLVHKVQNNKRVEAISIDLDAPDDGNMSVKIGGKDYSGYSTVFNTTALGCLDRMDLRGLNLHPTQADAIRCLHYDNSTKVALKFSYPWWIKDCGITCGGAASTDLPLRTCVYPSYNLGDTGEAVLLASYTWSQDATRIGSLVKDAPPQPPKEDELVELILQNLARLHAEHMTYEKIKEAYTGVYHAYCWANDPNVGGAFALFGPGQFSNLYPYLMRPAAGGKFHIVGEASSVHHAWIIGSLESAYTAVYQFLYKYKMWDYLRLLLERWQYGLQELETGKHGTAHLQFILGSLPKEYQVKIV
modifications: Trichoderma viride
As to B4, the “specific activity, as a reference value (pentosidine oxidase)” value in data set [2] (pH 7.5, 100 mM) is reported as 0.063 U/mg. The same molecule returned a pentosidine oxidase activity in data set [2] of 0.063 U/mL.
